Data published in the supplement of paper PMC9112550, “Optimization of the antimicrobial peptide Bac7 by deep mutational scanning” (BMC Biology, 2022).

Each sequence was assayed on Escherichia coli TOP10 (assay: shrunken log2 fold change of peptide-encoding DNA abundance (4.5 h post-induction vs induction); higher = less antimicrobial activity (less host growth inhibition)). Conditions: time post-induction: 4.5 h; library: site-saturation at positions 5, 18, 19, 20.
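Note: peptides expressed intracellularly from a pBAD plasmid library in pooled LB shake-flask culture, induced with 0.3% L-arabinose, DNA abundance read by NGS, three biological replicates, DESeq2 with apeglm shrinkage.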

| Sequence | shrunken log2 fold change |
| --- | --- |
| RRIRMRPPRLPRPRPRPCYKPRP | -0.145 |
| RRIRARPPRLPRPRPRPYELPRP | -0.101 |
| RRIRARPPRLPRPRPRPWYTPRP | -0.514 |
| RRIRKRPPRLPRPRPRPNIFPRP | -0.021 |
| RRIRHRPPRLPRPRPRPDICPRP | -0.622 |
| RRIRIRPPRLPRPRPRPSPYPRP | -0.396 |
| RRIRSRPPRLPRPRPRPCLAPRP | 0.0253 |
| RRIRKRPPRLPRPRPRPVQVPRP | -0.0596 |
| RRIRWRPPRLPRPRPRPMKMPRP | -0.0851 |
| RRIRSRPPRLPRPRPRPFTWPRP | -0.24 |
| RRIRNRPPRLPRPRPRPSWWPRP | 0.28 |
| RRIRNRPPRLPRPRPRPCGRPRP | -0.0266 |
| RRIRDRPPRLPRPRPRPQVYPRP | 0.175 |
| RRIRARPPRLPRPRPRPYINPRP | -0.413 |
| RRIRERPPRLPRPRPRPCHCPRP | -0.344 |
| RRIRMRPPRLPRPRPRPDQNPRP | 0.405 |
| RRIRARPPRLPRPRPRPEQEPRP | 0.00961 |
| RRIRFRPPRLPRPRPRPQYKPRP | -0.755 |
| RRIRGRPPRLPRPRPRPMSVPRP | 0.0559 |
| RRIRQRPPRLPRPRPRPMFFPRP | -0.0364 |
| RRIRFRPPRLPRPRPRPNCSPRP | -0.498 |
| RRIRCRPPRLPRPRPRPTKFPRP | -0.305 |
| RRIRPRPPRLPRPRPRPCTGPRP | -0.00227 |
| RRIRQRPPRLPRPRPRPVGWPRP | 0.72 |
| RRIRCRPPRLPRPRPRPKFAPRP | 0.0822 |

| Sequence | shrunken log2 fold change |
| --- | --- |
| RRIRRRPPRLPRPRPRPNHCPRP | -0.142 |
| RRIRVRPPRLPRPRPRPHLYPRP | -0.309 |
| RRIRWRPPRLPRPRPRPDQAPRP | 0.11 |
| RRIRMRPPRLPRPRPRPPDFPRP | 0.549 |
| RRIRCRPPRLPRPRPRPTCWPRP | 0.15 |
| RRIRERPPRLPRPRPRPQWVPRP | 0.0428 |
| RRIRFRPPRLPRPRPRPSWKPRP | 0.206 |
| RRIRCRPPRLPRPRPRPGYEPRP | -0.00917 |
| RRIRDRPPRLPRPRPRPKAQPRP | -0.1 |
| RRIRARPPRLPRPRPRPCVHPRP | 1.06 |
| RRIRARPPRLPRPRPRPQMMPRP | 0.129 |
| RRIRKRPPRLPRPRPRPDTWPRP | 0.35 |
| RRIRWRPPRLPRPRPRPTSQPRP | 0.229 |
| RRIRHRPPRLPRPRPRPLDGPRP | -0.34 |
| RRIRARPPRLPRPRPRPKRQPRP | 0.0749 |
| RRIRQRPPRLPRPRPRPLGCPRP | -0.0282 |
| RRIRLRPPRLPRPRPRPWTGPRP | -0.0428 |
| RRIRCRPPRLPRPRPRPLSFPRP | -0.398 |
| RRIRQRPPRLPRPRPRPVQMPRP | -0.163 |
| RRIRFRPPRLPRPRPRPWATPRP | 0.0109 |
| RRIRIRPPRLPRPRPRPTNMPRP | -0.427 |
| RRIRLRPPRLPRPRPRPDRRPRP | 0.0766 |
| RRIRERPPRLPRPRPRPLFVPRP | -0.799 |
| RRIRMRPPRLPRPRPRPKRPPRP | 0.85 |
| RRIRGRPPRLPRPRPRPSTRPRP | 0.114 |

| Sequence | shrunken log2 fold change |
| --- | --- |
| RRIRGRPPRLPRPRPRPPCVPRP | 1.15 |
| RRIRARPPRLPRPRPRPEHRPRP | 0.0198 |
| RRIRARPPRLPRPRPRPELQPRP | 0.731 |
| RRIRLRPPRLPRPRPRPWWAPRP | 0.0811 |
| RRIRARPPRLPRPRPRPPYAPRP | 0.251 |
| RRIRTRPPRLPRPRPRPFLSPRP | -0.195 |
| RRIRMRPPRLPRPRPRPNQDPRP | -0.123 |
| RRIRKRPPRLPRPRPRPQLMPRP | 1.59 |
| RRIRQRPPRLPRPRPRPLYFPRP | -0.623 |
| RRIRQRPPRLPRPRPRPGSLPRP | 0.143 |
| RRIRFRPPRLPRPRPRPYGTPRP | -0.81 |
| RRIRNRPPRLPRPRPRPIHQPRP | -0.189 |
| RRIRDRPPRLPRPRPRPPSDPRP | 0.251 |
| RRIRPRPPRLPRPRPRPTPIPRP | 0.336 |
| RRIRTRPPRLPRPRPRPIKCPRP | -0.234 |
| RRIRTRPPRLPRPRPRPPKSPRP | 0.556 |
| RRIRWRPPRLPRPRPRPINQPRP | -0.0913 |
| RRIRQRPPRLPRPRPRPYNDPRP | 0.00408 |
| RRIRFRPPRLPRPRPRPLVVPRP | -0.0929 |
| RRIRGRPPRLPRPRPRPAPKPRP | 1.18 |
| RRIRGRPPRLPRPRPRPKRVPRP | 0.198 |
| RRIRARPPRLPRPRPRPKFNPRP | -0.129 |
| RRIRPRPPRLPRPRPRPDFHPRP | -0.26 |
| RRIRGRPPRLPRPRPRPCFPPRP | 0.309 |
| RRIRARPPRLPRPRPRPHPCPRP | 0.206 |

| Sequence | shrunken log2 fold change |
| --- | --- |
| RRIRARPPRLPRPRPRPHCMPRP | 0.19 |
| RRIRGRPPRLPRPRPRPHICPRP | -0.0626 |
| RRIRPRPPRLPRPRPRPCMPPRP | -0.534 |
| RRIRSRPPRLPRPRPRPEPCPRP | 0.108 |
| RRIRSRPPRLPRPRPRPCCFPRP | -0.0695 |
| RRIRERPPRLPRPRPRPQYFPRP | -0.891 |
| RRIRRRPPRLPRPRPRPDGHPRP | -0.0521 |
| RRIRCRPPRLPRPRPRPYCAPRP | -0.642 |
| RRIRARPPRLPRPRPRPQMGPRP | -0.0713 |
| RRIRVRPPRLPRPRPRPNHRPRP | -0.199 |
| RRIRVRPPRLPRPRPRPPFPPRP | 0.369 |
| RRIRIRPPRLPRPRPRPKSWPRP | 0.327 |
| RRIRARPPRLPRPRPRPTVAPRP | 0.779 |
| RRIRQRPPRLPRPRPRPYSTPRP | -0.0896 |
| RRIRFRPPRLPRPRPRPLEDPRP | -0.0439 |
| RRIRLRPPRLPRPRPRPNSCPRP | 0.00169 |
| RRIRERPPRLPRPRPRPLATPRP | 0.133 |
| RRIRERPPRLPRPRPRPCNVPRP | -0.0745 |
| RRIRVRPPRLPRPRPRPLREPRP | 0.379 |
| RRIRNRPPRLPRPRPRPIELPRP | -0.232 |
| RRIRDRPPRLPRPRPRPMWYPRP | -0.0225 |
| RRIRMRPPRLPRPRPRPSIVPRP | -0.106 |
| RRIRDRPPRLPRPRPRPTWTPRP | -0.043 |
| RRIRSRPPRLPRPRPRPADLPRP | 0.274 |
| RRIRGRPPRLPRPRPRPTIIPRP | -0.026 |

| Sequence | shrunken log2 fold change |
| --- | --- |
| RRIRHRPPRLPRPRPRPVVFPRP | -0.147 |
| RRIRWRPPRLPRPRPRPYQFPRP | -0.00205 |
| RRIRDRPPRLPRPRPRPGAEPRP | 1.08 |
| RRIRPRPPRLPRPRPRPRPKPRP | 3.22 |
| RRIRERPPRLPRPRPRPMSLPRP | 0.0379 |
| RRIRERPPRLPRPRPRPCKNPRP | -0.121 |
| RRIRRRPPRLPRPRPRPRAFPRP | 0.605 |
| RRIRERPPRLPRPRPRPLDEPRP | -0.396 |
| RRIRLRPPRLPRPRPRPNHNPRP | -0.726 |
| RRIRRRPPRLPRPRPRPFISPRP | 0.0236 |
| RRIRIRPPRLPRPRPRPCMFPRP | -0.738 |
| RRIRRRPPRLPRPRPRPSHHPRP | -0.173 |
| RRIRWRPPRLPRPRPRPWWQPRP | 0.16 |
| RRIRCRPPRLPRPRPRPKKMPRP | 0.169 |
| RRIRSRPPRLPRPRPRPTEGPRP | 0.139 |
| RRIRMRPPRLPRPRPRPELWPRP | 3.17 |
| RRIRARPPRLPRPRPRPFEGPRP | 0.0201 |
| RRIRDRPPRLPRPRPRPETRPRP | 1.11 |
| RRIRVRPPRLPRPRPRPIWSPRP | 0.0334 |
| RRIRSRPPRLPRPRPRPKFFPRP | 0.113 |
| RRIRWRPPRLPRPRPRPIVHPRP | -0.175 |
| RRIRGRPPRLPRPRPRPIWSPRP | 0.15 |
| RRIRIRPPRLPRPRPRPYTWPRP | -0.891 |
| RRIRRRPPRLPRPRPRPVPDPRP | 0.173 |
| RRIRQRPPRLPRPRPRPQNRPRP | -0.0176 |

| Sequence | shrunken log2 fold change |
| --- | --- |
| RRIRLRPPRLPRPRPRPQGSPRP | -0.0921 |
| RRIRLRPPRLPRPRPRPKNDPRP | -0.563 |
| RRIRSRPPRLPRPRPRPMFNPRP | -0.258 |
| RRIRCRPPRLPRPRPRPTPCPRP | 0.281 |
| RRIRRRPPRLPRPRPRPTHCPRP | 0.562 |
| RRIRTRPPRLPRPRPRPNGMPRP | -0.245 |
| RRIRVRPPRLPRPRPRPIVCPRP | -0.0744 |
| RRIRKRPPRLPRPRPRPTWHPRP | 0.371 |
| RRIRWRPPRLPRPRPRPNREPRP | -0.0677 |
| RRIRWRPPRLPRPRPRPVDKPRP | -0.0524 |
| RRIRLRPPRLPRPRPRPQYIPRP | -0.189 |
| RRIRPRPPRLPRPRPRPAMQPRP | 0.11 |
| RRIRVRPPRLPRPRPRPTIYPRP | -0.498 |
| RRIRCRPPRLPRPRPRPCQPPRP | -0.149 |
| RRIRERPPRLPRPRPRPDYMPRP | 0.0229 |
| RRIRTRPPRLPRPRPRPKRPPRP | -0.165 |
| RRIRTRPPRLPRPRPRPCNTPRP | -0.21 |
| RRIRWRPPRLPRPRPRPQQHPRP | -0.056 |
| RRIRYRPPRLPRPRPRPYQMPRP | -0.344 |
| RRIRERPPRLPRPRPRPDRTPRP | -0.0361 |
| RRIRARPPRLPRPRPRPYWSPRP | -0.186 |
| RRIRIRPPRLPRPRPRPHQYPRP | -1.31 |
| RRIRMRPPRLPRPRPRPCDNPRP | 0.0146 |
| RRIRYRPPRLPRPRPRPMSTPRP | -0.0213 |
| RRIRNRPPRLPRPRPRPLCSPRP | -0.0294 |
